Laboratory results as given in paper PMC4208029 (Scientific Reports, 2014).

Target: T1, human full-length glucose transporter GLUT-1 (human, UniProt P11166 1-492)
T1 sequence (looked up): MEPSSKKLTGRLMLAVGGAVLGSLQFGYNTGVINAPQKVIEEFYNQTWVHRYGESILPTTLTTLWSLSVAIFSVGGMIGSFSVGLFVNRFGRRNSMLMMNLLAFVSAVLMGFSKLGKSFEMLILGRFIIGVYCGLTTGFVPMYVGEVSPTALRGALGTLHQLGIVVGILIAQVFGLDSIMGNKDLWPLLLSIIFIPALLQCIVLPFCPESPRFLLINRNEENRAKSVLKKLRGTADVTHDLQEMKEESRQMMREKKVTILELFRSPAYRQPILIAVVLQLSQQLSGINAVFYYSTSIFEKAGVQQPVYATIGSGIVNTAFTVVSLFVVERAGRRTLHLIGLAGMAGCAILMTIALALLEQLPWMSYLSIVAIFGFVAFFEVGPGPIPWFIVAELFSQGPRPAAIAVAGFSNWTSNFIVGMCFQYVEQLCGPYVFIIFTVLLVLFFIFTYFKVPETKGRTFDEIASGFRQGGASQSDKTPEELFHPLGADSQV
Assay: SPR

Kd: 22.3 nM | koff: 0.0016 s⁻¹ | kon: 120000 M⁻¹ s⁻¹
B1: Nb-GLUT-1 (VHH)
VHH: QVQLLESGGGLVQPGGSLRLSCAASGFTFSSYAMSWVRQAPGKGLEWVSTITAKGRQTYYADSVKGRFTISRDNSKNTLYLQMNSLRAEDTAVYYCATGPMYQPQFGSWGQGTLVTVSS
